Experiment [1] addresses T1, recombinant human LTBR-Fc (Acros Biosystems, LTR-H5251) (human, UniProt P36941 28-227, limits assumed).
T1 construct: Bought construct; not shown: Fc part
Put plainly: Luminex suspension array, protein coupled to microspheres, PE MFI. The method, then:
(§1) A number of TNFR family members were chemically coupled to Luminex® microspheres using standard NETS-ester chemistry. […] Briefly, 25 μl of each dilution was incubated in the dark (20° C., 650 rpm) with 1500 Luminex® microspheres in 5 μl assay buffer for 1 hour in 96 half-well filter plates (Millipore, MABVN1250). Luminex® microspheres were coupled with recombinant human OX40-His (SinoBiological, 10481-H08H), recombinant human OX40-Fc (R&D systems, 3388-OX), recombinant human LTBR-Fc (Acros Biosystems, LTR-H5251), recombinant human GITR-His (SinoBiological, 13643-H08H), recombinant human GITR-Fc (R&D, 689-GR), recombinant human DR6-Fc (SinoBiological, 10175-H02H), recombinant human DR3-Fc (R&D, 943-D3), recombinant human TWEAK R-Fc (SinoBiological, 10431-H01H), recombinant human CD137-His (SinoBiological, 10041-H08H), recombinant human BAFFR-Fc (R&D, 1162-BR) or anti-human IgG (F(ab)₂-specific, JIR, 105-006-097) via amine coupling with COOH bead surface. Standard curves were generated using duplicates of 25 μl of a human IgG1 standard (Sigma, I5154) with 1:3 dilution series (0.08-540 ng/ml). Detection was carried out using 60 μl of goat anti-human IgG F(ab)₂ labeled with R-PE (2.5 μg/ml; JIR 109-116-098, AbDSerotec Rapid RPE Antibody Conjugation Kit, LNK022RPE) and another hour of incubation time (20° C., 650 rpm). Plates were analyzed using a Luminex® 200 system (Millipore). A total of 100 beads were counted per well in a 48 μl sample volume. PE MFI values were used to determine specific or non-specific binding to the recombinant proteins mentioned above.

Experiment [2] addresses T2, recombinant human GITR-His (SinoBiological, 13643-H08H) (human, UniProt Q9Y5U5 26-161).
T2 construct: Bought construct; not shown: His tag
T2 sequence (looked up): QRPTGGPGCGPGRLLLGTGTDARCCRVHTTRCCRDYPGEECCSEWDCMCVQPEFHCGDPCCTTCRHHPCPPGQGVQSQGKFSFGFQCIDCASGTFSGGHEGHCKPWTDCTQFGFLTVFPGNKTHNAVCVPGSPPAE
The description is as above. How it is done: as §1

For experiment [3], the target named is T3, recombinant human BAFFR-Fc (R&D, 1162-BR) (human, UniProt Q96RJ3 7-71, limits assumed).
T3 construct: Bought construct; not shown: Fc part
T3 sequence (Q96RJ3 7-71 limits assumed): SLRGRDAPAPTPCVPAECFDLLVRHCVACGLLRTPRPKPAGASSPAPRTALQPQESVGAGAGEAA
The description is as above. How it is done: as §1

For experiment [4], the target named is T4, recombinant human TWEAK R-Fc (SinoBiological, 10431-H01H) (human, UniProt Q9NP84 28-80).
T4 construct: Bought construct; not shown: Fc part
The description is as above. The method, then:
as §1

For experiment [5], the target named is T5, recombinant human DR3-Fc (R&D, 943-D3) (human, UniProt Q93038 25-201, limits assumed).
T5 construct: Bought construct; not shown: Fc part
T5 sequence (looked up): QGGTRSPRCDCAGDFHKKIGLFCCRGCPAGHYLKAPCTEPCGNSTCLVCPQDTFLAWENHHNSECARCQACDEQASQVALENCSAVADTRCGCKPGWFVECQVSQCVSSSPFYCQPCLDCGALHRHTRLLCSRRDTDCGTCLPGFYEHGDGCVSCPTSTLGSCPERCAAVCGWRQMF
Described as above. How it is done: as §1

Experiment [6] concerns the target T6, recombinant human CD137-His (SinoBiological, 10041-H08H) (human, UniProt Q07011 24-186).
T6 construct: Bought construct; not shown: His tag
Described as above. The method, then:
as §1

Experiment [7] concerns the target T7, recombinant human GITR-Fc (R&D, 689-GR) (human, UniProt Q9Y5U5 26-161).
T7 construct: Bought construct; not shown: Fc part
T7 sequence (looked up): T2 sequence (looked up)
Described as above. How it is done:
as §1

Experiment [8] deals with T8, recombinant human DR6-Fc (SinoBiological, 10175-H02H) (human, UniProt O75509 42-349).
T8 construct: Bought construct; not shown: Fc part
T8 sequence (looked up): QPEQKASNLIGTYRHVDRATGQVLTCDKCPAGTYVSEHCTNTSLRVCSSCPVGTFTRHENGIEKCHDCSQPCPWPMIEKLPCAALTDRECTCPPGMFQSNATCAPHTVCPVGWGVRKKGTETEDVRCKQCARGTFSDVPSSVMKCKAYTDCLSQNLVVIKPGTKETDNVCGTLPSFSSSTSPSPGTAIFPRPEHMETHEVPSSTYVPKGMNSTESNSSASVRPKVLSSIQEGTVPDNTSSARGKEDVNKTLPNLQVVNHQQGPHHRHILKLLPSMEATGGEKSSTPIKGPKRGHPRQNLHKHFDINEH
The description is as above. The method, then: as §1

Experiment [9] concerns the target T9, recombinant human OX40-His (SinoBiological, 10481-H08H) (human, UniProt P43489 29-216).
T9 construct: not shown: His tag
T9 sequence: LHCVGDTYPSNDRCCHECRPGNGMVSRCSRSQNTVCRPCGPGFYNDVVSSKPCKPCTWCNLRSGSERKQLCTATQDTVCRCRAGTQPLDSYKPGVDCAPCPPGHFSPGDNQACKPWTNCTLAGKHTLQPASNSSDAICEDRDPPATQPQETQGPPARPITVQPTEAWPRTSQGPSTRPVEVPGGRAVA
Description: Luminex suspension array, protein coupled to microspheres, PE MFI; antibody at 10, 100 and 1000 ng/ml. The method, then: as §1, with “Detection was carried out using 60 μl of goat anti-human IgG F(ab)₂ labeled with R-PE (2.5 μg/ml; JIR 109-116-098, AbDSerotec Rapid RPE Antibody Conjugation Kit, LNK022RPE) and another hour of incubation time (20° C., 650 rpm).” left out, “PE MFI values were used to determine specific or non-specific binding to the recombinant proteins mentioned above.” left out

For experiment [10], the target named is T10, recombinant human OX40-Fc (R&D systems, 3388-OX) (human, UniProt P43489 29-216).
T10 construct: not shown: Fc part
T10 sequence: T9 sequence
Described as above. How it is done: as §1, with “Detection was carried out using 60 μl of goat anti-human IgG F(ab)₂ labeled with R-PE (2.5 μg/ml; JIR 109-116-098, AbDSerotec Rapid RPE Antibody Conjugation Kit, LNK022RPE) and another hour of incubation time (20° C., 650 rpm).” left out, “PE MFI values were used to determine specific or non-specific binding to the recombinant proteins mentioned above.” left out

The target in experiment [11] is T11, human OX40 expressed on cells (human, UniProt P43489 29-277).
T11 construct: It was expressed ectopically on Jurkat cells or induced on Hut102 cells and primary T cells; also called huOX40; Jurkat-huOX40
T11 sequence: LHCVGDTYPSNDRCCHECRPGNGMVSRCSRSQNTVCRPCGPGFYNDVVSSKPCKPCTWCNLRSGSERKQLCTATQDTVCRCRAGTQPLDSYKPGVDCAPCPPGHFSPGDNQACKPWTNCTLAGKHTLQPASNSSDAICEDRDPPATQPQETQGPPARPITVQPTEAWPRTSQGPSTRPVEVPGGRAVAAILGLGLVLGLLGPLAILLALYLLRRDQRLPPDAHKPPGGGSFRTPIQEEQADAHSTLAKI
Description: flow cytometry, 10-point titration 0.5-10,000 ng/ml, APC anti-human kappa detection. How it is done: Stable clones were generated via single-cell sorting (FACS ARIA Fusion). […] Samples were then washed two times and analyzed using the LSRFortessa flow cytometer (BD Biosciences). FACS plots were analyzed using a combination of FACS DIVA and WEHI Weasel software. Data were plotted with Graphpad Prism software.
(In general: In flow cytometry, cells or beads pass a laser one at a time.)

T6 sequence (Q07011 24-186 limits assumed): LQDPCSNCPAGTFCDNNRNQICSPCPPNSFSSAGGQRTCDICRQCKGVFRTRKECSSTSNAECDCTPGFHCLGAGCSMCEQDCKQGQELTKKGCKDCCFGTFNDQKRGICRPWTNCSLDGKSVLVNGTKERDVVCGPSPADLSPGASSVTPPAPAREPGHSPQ
T1 sequence (P36941 28-227 limits assumed): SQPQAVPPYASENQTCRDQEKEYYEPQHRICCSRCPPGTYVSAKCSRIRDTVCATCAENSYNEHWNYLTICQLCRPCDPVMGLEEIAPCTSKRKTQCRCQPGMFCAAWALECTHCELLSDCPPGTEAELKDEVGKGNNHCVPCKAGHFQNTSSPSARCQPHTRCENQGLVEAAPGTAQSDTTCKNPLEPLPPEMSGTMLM

B1: pab2049 (IgG1) (antibody, V domains shown)
VH: EVQLVESGGGLVQPGGSLKLSCAASGFTFSGSAMHWVRQASGKGLEWVGRIRSKANSYATAYAASVKGRFTISRDDSKNTAYLQMNSLKTEDTAVYYCTSGIYDSSGYDYWGQGTLVTVSS
VL: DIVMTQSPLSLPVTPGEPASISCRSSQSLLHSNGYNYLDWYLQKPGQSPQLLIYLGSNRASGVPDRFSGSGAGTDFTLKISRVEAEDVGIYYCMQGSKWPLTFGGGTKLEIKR
notes: Human IgG1; also called anti-OX40 antibody pab2049 (IgG1)
Regarding B1, the binding result in experiment [1] is “no binding (tested: 10 ng/ml, 100 ng/ml and 1000 ng/ml)”; in experiment [2], “no binding (tested: 10 ng/ml, 100 ng/ml and 1000 ng/ml)”; in experiment [3], “no binding (tested: 10 ng/ml, 100 ng/ml and 1000 ng/ml)”; in experiment [4] it was “no binding (tested: 10 ng/ml, 100 ng/ml and 1000 ng/ml)”; in experiment [5], “no binding (tested: 10 ng/ml, 100 ng/ml and 1000 ng/ml)”; in experiment [6], “no binding (tested: 10 ng/ml, 100 ng/ml and 1000 ng/ml)”. Also, the binding result is “no binding (tested: 10 ng/ml, 100 ng/ml and 1000 ng/ml)” in experiment [7]; “no binding (tested: 10 ng/ml, 100 ng/ml and 1000 ng/ml)” in experiment [8]; “binds” in experiment [9]; “binds” in [10]; “binds” in [11].

Values taken from patent US20200079862A1 (AGENUS, published 2020).
